Source: US20160031996A1 (CSL, published 2016)
Values belong to the molecule of their own block, whether it stands above or below them.

Tests used:
[1] = target: human IL-3Rα E51Q/P88T double mutant, full length (human) (UniProt P26951); assay: flow cytometry, MFI normalised to WT
[2] = target: human IL-3Rα E51Q/S59A double mutant, full length (human) (UniProt P26951); assay: flow cytometry, MFI normalised to WT
[3] = target: human IL-3Rα E51Q/S59A/P88T triple mutant, full length (human) (UniProt P26951); assay: flow cytometry, MFI normalised to WT
[4] = target: human IL-3Rα S59A/P88T double mutant, full length (human) (UniProt P26951); assay: flow cytometry, MFI normalised to WT
[5] = target: T1, full length human IL-3Rα, wild type (human, UniProt P26951 19-378); assay: flow cytometry, MFI normalised to WT (reference, set as 100%)
T1 construct: expressed in 293F cells; also called WT
T1 sequence: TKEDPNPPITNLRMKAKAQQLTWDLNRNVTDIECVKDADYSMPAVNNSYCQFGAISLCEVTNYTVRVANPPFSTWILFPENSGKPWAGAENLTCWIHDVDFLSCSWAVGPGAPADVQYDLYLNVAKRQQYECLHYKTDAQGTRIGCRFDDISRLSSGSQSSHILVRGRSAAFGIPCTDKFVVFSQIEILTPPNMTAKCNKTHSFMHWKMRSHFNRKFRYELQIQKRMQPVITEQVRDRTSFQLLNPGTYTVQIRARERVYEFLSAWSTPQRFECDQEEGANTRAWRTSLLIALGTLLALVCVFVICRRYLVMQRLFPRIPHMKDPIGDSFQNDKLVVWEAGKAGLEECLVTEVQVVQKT
Description: Median fluorescence intensity (MFI) of each antibody was determined for WT IL-3Rα and for each IL-3Rα mutant. The MFI of WT IL-3Rα staining for each antibody was set as 100% then the MFI of each mutant was normalized to a percent of WT staining.

human IL-3 = target: T2, human IL-3 (human, UniProt P08700 20-152); assay: flow cytometry, 293F cells expressing mutant IL-3Rα and CD131
T2 sequence (looked up): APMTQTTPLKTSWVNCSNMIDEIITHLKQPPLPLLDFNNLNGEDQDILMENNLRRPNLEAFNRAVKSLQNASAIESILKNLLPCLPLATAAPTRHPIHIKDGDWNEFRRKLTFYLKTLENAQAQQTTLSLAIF
Description: STAT5 activity was measured by flow cytometry after intracellular staining with a phosphoSTAT5 antibody (pSTAT5).

Molecule: anti-human IL-3Rα monoclonal antibody 9F5
MFI as percent of WT staining [1]: 70.1 % of WT MFI | MFI as percent of WT staining [2]: 87 % of WT MFI | MFI as percent of WT staining [3]: 32.7 % of WT MFI | MFI as percent of WT staining [4]: 95.6 % of WT MFI | MFI as percent of WT staining [5]: 100 % of WT MFI

B1: human IL-3Rα E51Q/S59A double mutant, full length (receptor)
chain: TKEDPNPPITNLRMKAKAQQLTWDLNRNVTDIQCVKDADYAMPAVNNSYCQFGAISLCEVTNYTVRVANPPFSTWILFPENSGKPWAGAENLTCWIHDVDFLSCSWAVGPGAPADVQYDLYLNVAKRQQYECLHYKTDAQGTRIGCRFDDISRLSSGSQSSHILVRGRSAAFGIPCTDKFVVFSQIEILTPPNMTAKCNKTHSFMHWKMRSHFNRKFRYELQIQKRMQPVITEQVRDRTSFQLLNPGTYTVQIRARERVYEFLSAWSTPQRFECDQEEGANTRAWRTSLLIALGTLLALVCVFVICRRYLVMQRLFPRIPHMKDPIGDSFQNDKLVVWEAGKAGLEECLVTEVQVVQKT
binding result (human IL-3): binds

B2: human IL-3Rα E51Q/P88T double mutant, full length (receptor)
chain: TKEDPNPPITNLRMKAKAQQLTWDLNRNVTDIQCVKDADYSMPAVNNSYCQFGAISLCEVTNYTVRVANTPFSTWILFPENSGKPWAGAENLTCWIHDVDFLSCSWAVGPGAPADVQYDLYLNVAKRQQYECLHYKTDAQGTRIGCRFDDISRLSSGSQSSHILVRGRSAAFGIPCTDKFVVFSQIEILTPPNMTAKCNKTHSFMHWKMRSHFNRKFRYELQIQKRMQPVITEQVRDRTSFQLLNPGTYTVQIRARERVYEFLSAWSTPQRFECDQEEGANTRAWRTSLLIALGTLLALVCVFVICRRYLVMQRLFPRIPHMKDPIGDSFQNDKLVVWEAGKAGLEECLVTEVQVVQKT
binding result (human IL-3): binds

Results, then the molecule that gave them:

binding result (human IL-3): binds
B3: human IL-3Rα S59A/P88T double mutant, full length (receptor)
chain: TKEDPNPPITNLRMKAKAQQLTWDLNRNVTDIECVKDADYAMPAVNNSYCQFGAISLCEVTNYTVRVANTPFSTWILFPENSGKPWAGAENLTCWIHDVDFLSCSWAVGPGAPADVQYDLYLNVAKRQQYECLHYKTDAQGTRIGCRFDDISRLSSGSQSSHILVRGRSAAFGIPCTDKFVVFSQIEILTPPNMTAKCNKTHSFMHWKMRSHFNRKFRYELQIQKRMQPVITEQVRDRTSFQLLNPGTYTVQIRARERVYEFLSAWSTPQRFECDQEEGANTRAWRTSLLIALGTLLALVCVFVICRRYLVMQRLFPRIPHMKDPIGDSFQNDKLVVWEAGKAGLEECLVTEVQVVQKT

binding result (human IL-3): binds
B4: human IL-3Rα E51Q/S59A/P88T triple mutant, full length (receptor)
chain: TKEDPNPPITNLRMKAKAQQLTWDLNRNVTDIQCVKDADYAMPAVNNSYCQFGAISLCEVTNYTVRVANTPFSTWILFPENSGKPWAGAENLTCWIHDVDFLSCSWAVGPGAPADVQYDLYLNVAKRQQYECLHYKTDAQGTRIGCRFDDISRLSSGSQSSHILVRGRSAAFGIPCTDKFVVFSQIEILTPPNMTAKCNKTHSFMHWKMRSHFNRKFRYELQIQKRMQPVITEQVRDRTSFQLLNPGTYTVQIRARERVYEFLSAWSTPQRFECDQEEGANTRAWRTSLLIALGTLLALVCVFVICRRYLVMQRLFPRIPHMKDPIGDSFQNDKLVVWEAGKAGLEECLVTEVQVVQKT
